Results published in the supplement of paper PMC9876800.

Test system: peptide library, one residue held at a place counted from the S/T acceptor
Experiment: relative phosphorylation of the sub-library (ratio to the mean residue at this position); higher = residue favoured
Summary of the method: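 Purified recombinant kinases, either human or orthologue constructs, were incubated in 384-well plates with biotinylated degenerate peptide sub-libraries. Each sub-library fixed one residue at one position around a central Ser/Thr. Peptides at 50 μM and 50 μM ATP spiked with γ-32P-ATP were used for 90 min under kinase-specific conditions, and spots on streptavidin membranes were phosphorimaged and quantified by densitometry. Relative sub-library phosphorylation is expressed as a ratio to the mean residue at that position.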

Chain of RPS6KB1, construct: aa1-421, human (P23443 1-421, looked up): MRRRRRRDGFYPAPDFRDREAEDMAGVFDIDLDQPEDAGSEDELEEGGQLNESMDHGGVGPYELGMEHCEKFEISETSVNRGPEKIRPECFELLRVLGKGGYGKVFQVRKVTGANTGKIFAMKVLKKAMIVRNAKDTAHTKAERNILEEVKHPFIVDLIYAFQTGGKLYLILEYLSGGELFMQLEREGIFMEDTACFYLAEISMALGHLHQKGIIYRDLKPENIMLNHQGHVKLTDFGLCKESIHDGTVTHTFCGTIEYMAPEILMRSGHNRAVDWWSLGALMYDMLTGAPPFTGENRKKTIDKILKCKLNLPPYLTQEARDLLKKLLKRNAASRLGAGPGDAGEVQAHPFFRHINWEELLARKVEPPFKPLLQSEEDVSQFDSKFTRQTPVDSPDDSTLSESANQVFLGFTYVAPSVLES
Chain of RPS6KA1, construct: Full length, human (Q15418 whole entry, looked up): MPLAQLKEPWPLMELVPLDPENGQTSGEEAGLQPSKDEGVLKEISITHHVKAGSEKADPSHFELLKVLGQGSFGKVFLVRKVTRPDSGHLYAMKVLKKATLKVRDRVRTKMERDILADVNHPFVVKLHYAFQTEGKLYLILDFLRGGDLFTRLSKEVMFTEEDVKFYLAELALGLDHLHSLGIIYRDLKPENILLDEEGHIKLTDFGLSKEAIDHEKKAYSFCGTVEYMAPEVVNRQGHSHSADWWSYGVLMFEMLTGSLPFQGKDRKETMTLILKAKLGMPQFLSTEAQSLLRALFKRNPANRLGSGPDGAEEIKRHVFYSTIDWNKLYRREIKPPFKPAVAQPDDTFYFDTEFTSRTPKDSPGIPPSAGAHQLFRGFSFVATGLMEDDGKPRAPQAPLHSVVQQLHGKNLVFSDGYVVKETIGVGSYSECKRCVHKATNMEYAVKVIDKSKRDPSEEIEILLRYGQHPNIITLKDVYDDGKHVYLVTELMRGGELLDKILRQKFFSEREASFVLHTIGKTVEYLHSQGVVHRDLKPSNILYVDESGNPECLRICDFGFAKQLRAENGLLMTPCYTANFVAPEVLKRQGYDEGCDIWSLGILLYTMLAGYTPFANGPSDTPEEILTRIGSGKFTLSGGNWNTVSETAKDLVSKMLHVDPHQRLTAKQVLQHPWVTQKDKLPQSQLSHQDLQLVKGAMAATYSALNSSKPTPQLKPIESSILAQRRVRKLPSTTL
Chain of STK16, construct: Full length, human (O75716 whole entry, looked up): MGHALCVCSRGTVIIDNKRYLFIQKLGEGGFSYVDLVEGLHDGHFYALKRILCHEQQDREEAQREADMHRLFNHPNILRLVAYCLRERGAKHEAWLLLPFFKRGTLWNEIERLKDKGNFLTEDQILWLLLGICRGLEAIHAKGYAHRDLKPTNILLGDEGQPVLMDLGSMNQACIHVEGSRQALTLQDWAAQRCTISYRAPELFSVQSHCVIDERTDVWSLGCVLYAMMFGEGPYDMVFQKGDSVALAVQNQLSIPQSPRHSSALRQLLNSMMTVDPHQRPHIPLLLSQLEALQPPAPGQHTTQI

PRKG1, construct: Full length, human (from UniProt Q13976)
relative phosphorylation
Conditions	at +1	at +2	at +3	at +4	at -1	at -2	at -3	at -4	at -5
A fixed	0.819	1.43	0.964	0.841	0.831	0.24	0.611	1.1	1.11
D fixed	0.195	0.45	0.572	0.5	0.21	0.0553	0.075	0.315	0.381
E fixed	0.236	0.242	0.458	0.419	0.193	0.0546	0.0892	0.395	0.517
F fixed	1.29	1.16	1.23	1.13	1.05	0.201	0.447	0.986	1.08
G fixed	0.479	0.901	1.06	1.07	0.416	0.248	0.684	0.878	1.06
H fixed	1.2	1.62	1.49	1.31	1.25	0.518	1.48	1.3	1.24
I fixed	1.73	1.25	1.02	1.19	0.958	0.168	0.262	0.75	0.82
K fixed	0.623	0.642	0.669	0.715	1.42	5.12	2.17	1.53	1.43
L fixed	1.45	0.936	1.07	1.22	1.33	0.166	0.239	0.996	0.779
M fixed	1.56	1.03	1.26	1.22	1.43	0.171	0.351	1.31	0.877
N fixed	0.589	0.94	0.909	1.15	0.787	0.264	0.329	0.891	0.905
P fixed	0.177	0.576	0.743	1.35	0.718	0.13	0.421	0.58	0.8
Q fixed	0.967	1.16	0.964	1.02	0.868	0.402	0.674	0.851	0.848
R fixed	0.982	0.6	0.861	0.754	1.95	8.27	7.6	2.14	1.81
V fixed	2.26	1.53	1.03	0.847	1.16	0.544	0.273	0.77	0.914
W fixed	1.12	1.35	1.33	1.24	0.797	0.22	0.482	1.06	1.25
Y fixed	1.33	1.2	1.38	1.02	1.64	0.23	0.82	1.15	1.19
pThr fixed	0.343	0.228	0.412	0.444	0.174	0.142	0.214	0.542	0.627
pTyr fixed	0.365	0.324	0.493	0.5	0.324	0.098	0.248	0.487	0.659

RPS6KA1, construct: Full length, human (from UniProt Q15418)
relative phosphorylation
Conditions	at +1	at +2	at +3	at +4	at -1	at -2	at -3	at -4	at -5
A fixed	0.899	1.02	0.983	0.839	0.926	0.75	0.694	1.2	0.916
D fixed	0.459	0.887	1.1	1.25	0.593	0.724	0.524	0.574	0.439
E fixed	0.784	0.691	1.13	1.03	0.408	0.614	0.424	0.703	0.364
F fixed	1.09	0.767	1	0.816	0.796	0.684	0.365	0.817	0.822
G fixed	0.654	0.939	1.08	0.985	1.19	1.2	0.737	1.22	0.977
H fixed	1.15	1.55	1.24	1.05	1.06	1.14	0.549	0.857	0.935
I fixed	1.3	1.05	0.853	0.76	0.404	0.546	0.331	0.931	0.849
K fixed	0.881	0.77	0.686	1.14	1.21	1.86	1.32	1.63	1.84
L fixed	0.969	0.816	1.05	0.785	0.942	1.14	0.388	0.895	1.18
M fixed	1.1	0.774	0.93	0.791	1.04	0.897	0.487	1.05	0.72
N fixed	1.02	1.04	0.822	1.01	1.14	0.732	0.506	0.722	0.67
P fixed	0.625	0.615	0.914	1.47	2.71	0.581	0.76	0.979	0.993
Q fixed	1.39	0.817	0.94	1.21	0.997	1.15	0.538	0.83	0.696
R fixed	1.07	1.2	0.875	0.914	1.25	3.29	8.19	2.05	2.91
V fixed	1.62	1.14	0.801	0.819	0.592	0.441	0.315	0.79	0.75
W fixed	0.884	1.16	1.34	1.16	0.739	0.597	0.482	0.978	1.1
Y fixed	1.1	1.77	1.26	0.969	1.01	0.649	0.39	0.779	0.841
pThr fixed	1.51	0.917	1.17	1.95	0.284	0.293	0.348	0.573	0.527
pTyr fixed	1.32	0.957	1.59	1.17	0.522	0.33	0.332	0.413	0.526

RPS6KB1, construct: aa1-421, human (from UniProt P23443)
relative phosphorylation
Conditions	at +1	at +2	at +3	at +4	at -1	at -2	at -3	at -4	at -5
A fixed	0.718	0.952	0.865	0.956	0.716	0.67	0.516	0.839	0.539
D fixed	0.458	0.433	0.664	0.933	0.802	0.231	0.188	0.433	0.362
E fixed	0.849	0.268	0.694	0.703	0.577	0.25	0.194	0.694	0.323
F fixed	2.01	0.855	1.22	0.909	0.878	0.823	0.421	0.73	0.721
G fixed	0.804	1.68	1.13	1.18	0.562	0.48	0.318	0.724	0.608
H fixed	1.19	1.65	1.45	1.38	1.28	1.14	0.949	1.11	1.21
I fixed	1.07	0.942	0.914	0.909	0.768	0.741	0.37	0.708	0.593
K fixed	0.932	0.794	0.982	0.943	1.35	2.56	1.45	2.08	1.92
L fixed	1.18	0.933	0.976	0.868	1.12	1.24	0.426	0.802	0.714
M fixed	1.39	1	0.794	0.863	1.19	0.87	0.452	0.947	0.529
N fixed	0.746	1.41	0.87	1.07	1.31	0.763	0.41	0.904	0.66
P fixed	0.328	0.816	0.955	1.26	1.2	0.289	0.297	0.794	0.645
Q fixed	0.717	0.707	1	0.966	0.957	0.841	0.541	1.05	0.934
R fixed	0.944	1.61	1.08	0.784	1.3	3.7	8.82	2.34	5.28
V fixed	1.19	1.06	0.772	0.926	1.01	0.596	0.362	1.01	0.562
W fixed	1.42	0.935	1.43	1.26	0.8	0.751	0.658	0.989	0.738
Y fixed	1.05	0.955	1.21	1.09	1.17	1.05	0.624	0.849	0.661
pThr fixed	0.905	0.467	0.716	1.36	0.384	0.275	0.231	0.55	0.429
pTyr fixed	1.39	0.696	0.954	1.14	1.77	0.451	0.348	0.598	0.579

STK16, construct: Full length, human (from UniProt O75716)
relative phosphorylation
Conditions	at +1	at +2	at +3	at +4	at -1	at -2	at -3	at -4	at -5
A fixed	0.727	2.01	1.04	1	0.863	1.44	0.99	1.12	1.1
D fixed	0.32	0.668	0.537	0.519	0.334	0.409	0.474	0.885	0.694
E fixed	0.182	0.604	0.496	0.566	0.273	0.36	0.491	0.674	0.581
F fixed	0.531	0.95	0.956	0.888	0.833	0.758	0.672	1.12	0.96
G fixed	4.33	1.26	1.66	1.23	2.16	0.83	0.808	1.13	0.953
H fixed	0.804	0.887	0.982	1.07	2.29	0.75	0.824	0.94	1.06
I fixed	0.534	0.991	0.898	0.982	0.526	1.23	1.98	0.894	0.914
K fixed	1.08	0.844	1.36	1.16	1.4	0.569	0.854	1.06	0.99
L fixed	0.461	0.915	0.81	0.835	0.656	1.03	0.894	0.952	0.868
M fixed	0.447	0.822	0.881	0.875	0.815	1.04	0.85	0.961	0.989
N fixed	2.13	0.787	0.897	0.746	0.737	0.509	0.701	0.798	0.875
P fixed	0.801	1.03	1.03	1.1	1.64	4.27	2.6	1.43	1.54
Q fixed	0.522	1.19	0.974	0.999	0.71	0.676	0.829	0.849	0.96
R fixed	2.08	1.06	1.73	1.31	1.19	0.959	0.963	1.11	1.49
V fixed	0.518	1.06	0.922	0.845	0.677	0.88	1.5	0.963	0.796
W fixed	0.999	0.849	0.853	1.59	0.813	0.601	0.74	1.09	1.13
Y fixed	0.534	1.08	0.98	1.29	1.09	0.695	0.834	1.02	1.1
pThr fixed	0.289	0.402	0.518	0.44	0.352	2.01	0.864	0.838	0.845
pTyr fixed	0.242	0.36	0.605	0.544	0.276	0.401	0.468	0.658	0.65
